Experiment in all cases: cell-based or functional assay
Test [1] concerns the target endogenous wild-type PLB of cardiac myocytes or SR (species not stated at these places) (Rattus norvegicus (Rat)) (UniProt P61016).
Test [2] deals with endogenous wild-type PLB of rat cardiac myocytes (rat) (UniProt P61016).
The target in test [3] is endogenous wild-type PLB of adult rabbit myocytes (rabbit) (UniProt P61015).

Data on 1 substance can be found in patent EP1728516A1.

UniProt P61015, sequence (P61015 whole entry): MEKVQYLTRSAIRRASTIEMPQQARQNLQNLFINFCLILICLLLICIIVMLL

For the substance PLB double point mutant K3E/R14E, in test [1], the decrease in RT50 after plasmid transfection of myocytes worked out at 43%; the half-time for decay (RT50) of the indo 1 Ca2+ transient, neonatal myocytes (LacZ: 0.28 seconds) amounted to 0.2 s; the half-time for decay (RT50) of the indo 1 Ca2+ transient, percent of LacZ came out at 73%. In test [2], this substance came in with a lowering of the EC50 of SR Ca2+ uptake, adult rat myocytes of 36%. In test [3], this substance displayed a decrease in RT50 against the LacZ control of 25%, an increase in +dL/dt against the LacZ control of 115% and an increase of fractional shortening against the LacZ control of 74%.
